Patent publication US8822165B2, “Method for producing cAMP using chimeric olfactory receptor” (Panasonic Corporation, priority 2010, dated 2014)

Key:
HEK293T cells [1] = experiment: cAMP production by mOREG-derived receptors expressed in HEK293T cells, eugenol as agonist (Experiment 1); assay type: cell-based
HEK293T cells [2] = experiment: as above; assay type: cell-based; remark: listed apart in the source
Protocol: Subsequently, the HEK293T cells were transfected with the above-mentioned three plasmids by a lipofection method. The HEK293T cells were incubated for 48 hours, and the β1AR consisting of the protein represented by SEQ ID NO: 03 was expressed on the cell membrane of the HEK293T cell.
The abbreviation “IBMX” means 3-isobutyl-1-methylxanthine. The IBMX is one of the phosphodiesterase inhibitors. The IBMX stabilizes cAMP, which is unstable.
The expression was conducted similarly to that of the step 2 of the reference example 1 except that the plasmid (Rho-mOREG) was used instead of the plasmid (β1AR). In this way, the Rho-mOREG (SEQ ID NO: 34) was expressed on a cell membrane.
Based on the measured cAMP concentration, a concentration increase value was calculated in accordance with the following equation: (Concentration increase value)=(the cAMP concentration measured when the concentration of the eugenol was 300μM)−(the cAMP concentration measured when the concentration of the eugenol was 0 μM)

Row | Molecule | concentration increase value of the cAMP (HEK293T cells [1]; eugenol 30 μM) | concentration increase value of the cAMP (HEK293T cells [1]; eugenol 1000 μM) | cAMP concentration (HEK293T cells [2]; eugenol 0 μM) [pmol/µg] | concentration increase value of the cAMP (HEK293T cells [2]; eugenol 300 μM (Table 5)) | concentration increase value of the cAMP (HEK293T cells [2]; eugenol 300 μM minus eugenol 0 μM) [pmol/microgram] | concentration increase value of the cAMP compared with the other olfactory receptors (in words) (HEK293T cells [1]; regardless of the concentration of eugenol, Table 5) | concentration increase value compared with the other olfactory receptors derived from the mOREG (in words) (HEK293T cells [2]; eugenol 300 μM, Table 4)
1 | Rho-mOREG: mouse olfactory receptor for eugenol with N-terminal Rho tag (protein, Rho-mOREG, mouse olfactory receptor for eugenol with N-terminal Rho tag) MNGTEGPNFYVPFSNKTGVVMTLSDGNHSGAVFTLLGFSDYPELTIPLFLIFLTIYSITVVGNIGMIVIIRINPKLHIPMYFFLSHLSFVDFCYSSIVAPKMLVNLVTMNRGISFVGCLVQFFFFCTFVVTESFLLGVMAYDRFVAIRNPLLYTVAMSQRLCAMLVLGSYAWGVVCSLILTCSALNLSFYGFNMINHFFCEFSSLLSLSRSDTSVSQLLLFVFATFNEISTLLIILLSYVLIVVTILKMKSASGRRKAFSTCASHLTAITIFHGTILFLYCVPNSKNSRHTVKVASVFYTVVIPMLNPLIYSLRNKDVKDTVKKIIGTKVYSS | 0.0012 | 0.0026 | 0.00633 | 0.0018 | – | – | –
2 | chimera2: EC1-IC1 domains of the β1AR, TM2-TM7 domains of the mOREG, IC4 domain of the β1AR (protein, chimera 2) MGAGALALGASEPCNLSSAAPLPDGAATAARLLVLASPPASLLPPASEGSAPLSQQWTAGMGLLLALIVLLIVVGNVLVIVAIAKTPRLQTLTNLTRPMYFFLSHLSFVDFCYSSIVAPKMLVNLVTMNRGISFVGCLVQFFFFCTFVVTESFLLGVMAYDRFVAIRNPLLYTVAMSQRLCAMLVLGSYAWGVVCSLILTCSALNLSFYGFNMINHFFCEFSSLLSLSRSDTSVSQLLLFVFATFNEISTLLIILLSYVLIVVTILKMKSASGRRKAFSTCASHLTAITIFHGTILFLYCVPNSKNSRHTVKVASVFYTVVIPMLNPLIYSLRNKSRDFRKAFQRLLCCARRAACRRRAAHGDRPRASGCLARAGPPPSPGAPSDDDDDDAGATPPARLLEPWAGCNGGTTTVDSDSSLDEPGRQGFSSESKV | – | – | – | – | 0.0002 | – | –
3 | chimera1: IC4 domain of the Rho-myc-mOREG is substituted with the IC4 domain of the beta-1 adrenergic receptor (protein, chimera 1, IC4 domain of the Rho-myc-mOREG is substituted with the IC4 domain of the beta-1 adrenergic receptor) MNGTEGPNFYVPFSNKTGVVEQKLISEEDLEFMTLSDGNHSGAVFTLLGFSDYPELTIPLFLIFLTIYSITVVGNIGMIVIIRINPKLHIPMYFFLSHLSFVDFCYSSIVAPKMLVNLVTMNRGISFVGCLVQFFFFCTFVVTESFLLGVMAYDRFVAIRNPLLYTVAMSQRLCAMLVLGSYAWGVVCSLILTCSALNLSFYGFNMINHFFCEFSSLLSLSRSDTSVSQLLLFVFATFNEISTLLIILLSYVLIVVTILKMKSASGRRKAFSTCASHLTAITIFHGTILFLYCVPNSKNSRHTVKVASVFYTVVIPMLNPLIYSLRNKDFRKAFQRLLCCARRAACRRRAAHGDRPRASGCLARAGPPPSPGAPSDDDDDDAGATPPARLLEPWAGCNGGTTTVDSDSSLDEPGRQGFSSESKV | 0.0065 | 0.031 | – | 0.018 | – | greater | much greater
4 | Rho-myc-mOREG: mouse olfactory receptor for eugenol with N-terminal Rho tag and myc epitope tag (protein, Rho-myc-mOREG) MNGTEGPNFYVPFSNKTGVVEQKLISEEDLEFMTLSDGNHSGAVFTLLGFSDYPELTIPLFLIFLTIYSITVVGNIGMIVIIRINPKLHIPMYFFLSHLSFVDFCYSSIVAPKMLVNLVTMNRGISFVGCLVQFFFFCTFVVTESFLLGVMAYDRFVAIRNPLLYTVAMSQRLCAMLVLGSYAWGVVCSLILTCSALNLSFYGFNMINHFFCEFSSLLSLSRSDTSVSQLLLFVFATFNEISTLLIILLSYVLIVVTILKMKSASGRRKAFSTCASHLTAITIFHGTILFLYCVPNSKNSRHTVKVASVFYTVVIPMLNPLIYSLRNKDVKDTVKKIIGTKVYSS | 0.0028 | 0.0190 | – | 0.0060 | – | – | –
